Reference: the supplement of paper PMC10567573

B1: MATN2 (parent)
chain: TDDSYSCHCLKGFTLNPDKKTCRR

Variants of: B1
Assay: protein stability index of a GFP-peptide fusion (GPS, HEK-293T) (PSI 1-6); higher = more stable
Conditions: c terminus: a fixed tail appended
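Note: lentivirally expressed fusions sorted by FACS into six bins by GFP to DsRed ratio, PSI derived from sequencing read proportions per bin multiplied by bin number.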

Protein stability index: each site, then its substitutions
R23: S 2.29; D 2.62; M 1.5; F 1.86; H 1.91; P 2.56; A 2.41; W 2.26; G 2.62; Q 2.78; L 2.36; K 2.76; I 2.02; V 2.48; N 2.71; T 2.52; C 2.83; E 2.52; Y 2.2
R24: C 5.18; Y 2.6; A 2.87; F 2.5; M 2.19; N 3.25; V 2.32; D 3.73; W 1.99; T 3.15; E 3.43; L 2.38; S 2.87; I 1.6; H 4.06; Q 2.61; G 3.12; P 2.46; K 2.99
C22: P 3; H 2.18; S 2.42; W 1.67; R 2.86; Q 2.27; L 2.93; F 2.16; K 3.37; V 3.13; I 2.09; E 2.02; N 2.75; M 1.88; G 2.27; D 2.69; T 2.44; Y 1.94
